Results as given in publication PMC6755732, “Structural, Biochemical, and In Vivo Characterization of MtrR-Mediated Resistance to Innate Antimicrobials by the Human Pathogen Neisseria gonorrhoeae”.

Key:
MtrR [1] = biological target: T1, MtrR (Neisseria gonorrhoeae, UniProt P39897 1-210); assay: fluorescence polarization; no CAPS; FP: 20 mM Tris-HCl pH 8.0, 100 mM NaCl, 2.5% glycerol, 1 nM DNA, temperature not stated; EMSA: 20 mM Tris pH 8.0, 200 mM NaCl, 10% glycerol, 1 mM TCEP, 1 ug poly(dI-dC), room temperature, 2% agarose TAE; settings: protein: recombinant; tags: His6 removed by thrombin; chain copies: 2
MtrR [2] = biological target: T1, MtrR; assay: fluorescence polarization; no bile salt; FP: 20 mM Tris-HCl pH 8.0, 100 mM NaCl, 2.5% glycerol, 1 nM DNA, temperature not stated; EMSA: 20 mM Tris pH 8.0, 200 mM NaCl, 10% glycerol, 1 mM TCEP, 1 ug poly(dI-dC), room temperature, 2% agarose TAE; settings: protein: recombinant; tags: His6 removed by thrombin; chain copies: 2
MtrR [3] = biological target: T1, MtrR; assay: fluorescence polarization; 1 mM glycocholate; FP: 20 mM Tris-HCl pH 8.0, 100 mM NaCl, 2.5% glycerol, 1 nM DNA, temperature not stated; EMSA: 20 mM Tris pH 8.0, 200 mM NaCl, 10% glycerol, 1 mM TCEP, 1 ug poly(dI-dC), room temperature, 2% agarose TAE; settings: protein: recombinant; tags: His6 removed by thrombin; chain copies: 2
MtrR [4] = biological target: T1, MtrR; assay: fluorescence polarization; 1 mM taurocholate; FP: 20 mM Tris-HCl pH 8.0, 100 mM NaCl, 2.5% glycerol, 1 nM DNA, temperature not stated; EMSA: 20 mM Tris pH 8.0, 200 mM NaCl, 10% glycerol, 1 mM TCEP, 1 ug poly(dI-dC), room temperature, 2% agarose TAE; settings: protein: recombinant; tags: His6 removed by thrombin; chain copies: 2
MtrR(R176E) = MtrR(R176E) (Neisseria gonorrhoeae, UniProt P39897 1-210, R176E); assay: fluorescence polarization; no bile salt; nM Kd within 5-fold of WT (137, 184 or 187 nM, assignment unclear); FP: 20 mM Tris-HCl pH 8.0, 100 mM NaCl, 2.5% glycerol, 1 nM DNA, temperature not stated; EMSA: 20 mM Tris pH 8.0, 200 mM NaCl, 10% glycerol, 1 mM TCEP, 1 ug poly(dI-dC), room temperature, 2% agarose TAE; settings: protein: recombinant; tags: N-terminal His6 removed by TEV; chain copies: 2
MtrR(W136L) = MtrR(W136L) (Neisseria gonorrhoeae, UniProt P39897 1-210, W136L); assay: as above; settings: protein: recombinant; tags: N-terminal His6 removed by TEV; chain copies: 2
MtrR(R176A) = MtrR(R176A) (Neisseria gonorrhoeae, UniProt P39897 1-210, R176A); assay: as above; settings: protein: recombinant; tags: N-terminal His6 removed by TEV; chain copies: 2

B1: mtrC (mtrCDE) operator 27-mer, fluorescein (dsDNA)
DNA 1: TTTTTATCCGTGCAATCGTGTATGTAT
DNA 2: ATACATACACGATTGCACGGATAAAAA
MtrR [1]
  Kd: ~3.6 nM
MtrR [2]
  Kd: 18 ± 3 nM
MtrR [3]
  Kd: 21 ± 0.8 nM
MtrR [4]
  Kd: 20 ± 6 nM
MtrR(R176E)
  binding result: binds
MtrR(W136L)
  binding result: binds
MtrR(R176A)
  binding result: binds
